B1: 41 (nucleic acid, listed as Homo sapiens)
chain: CCCTTGAACTTATTAAAATCTTTTATAATGTAGTACATTTACTGACTGCTTTCAGGCAGGCATGAGGACCTTTCACTCCATTTGCTCCATTGTCCCTTTTGAAGGATTCTTGTCATATATATAAAACCTCTTAAGACATAATGTTATTGTTTTATATACTCTTTAATCACCTACATCTTTGCACTTTAATATTTCCTAAATTTGCATTCTTCTCTCTGGGACTAGAAGACCTCAGCTTAGCGGTTCTTTTCATGTGGGCCTGAGAAATTTTCTCACTTTTTGTTTCACTTTCATTCTTGAAGGAACGTTTCACTGGTTATAGGATGCAAGGTTAGCGGTTATTCTCTTCTGCATCTTCCCACTGCATTGTCTTCTGAATCTTATAATTTATGTAAAAACATTAGTTGTCTGTCTTCCCATTGCTTCTGTGAAAATAATGCATGTTTTCCTCTGGTTGTTTTTGACATTTTCTTTGTGTCTGTTTCTCAGCAATTTTTCCATGATATATGCTCGGAGCGGGCTTACTTATCCTACACCCTGAATCTGTAGCTTGACGTCTTTTTGTCAACTTTGGAAAGTTTTTGGCATTATCTCATCAAATATTTCCCCTGTCCTGTTCTTGCTCTTCTCTTGCTGGAGTGCAGTCGTTCCTGTATTAGACCTTTGCATCATGTTCTAGGTATTTTTATCT
B2: 47 (nucleic acid, listed as Homo sapiens)
chain: AGGCCTGGCACAGTGGCTCATGCGTGTAATCCCAACACTGCGGGAAGCTGAGGCAGGAGGATCACTTGAGCCCAGGAGCTCATGGCTGTAGTGAGCTGTGATTGCACCACTGCACTGCACTCCAGCCTGGGCAACAGCAAGACCCTGTCTCCAAAAAAAAAAAACAAAACAAATTAAT
B3: 49 (nucleic acid, listed as Homo sapiens)
chain: CTTTAACCTCCTTGTTACGTTTGTCTCTTCCAGAATCGAAGCTGTAAAACTACAAATGGTTCTTCAAATGGAGCCCCAGATGCAGTCCATGACTAAGATCTACCGCGGACCCCTGGACTGGCCTGCTAGCCCATGCTCCAATGTTGATGACATTGAAGGCACCCCTCCCAAGGAAATCTCAACTGCACGACCCCTACTATGCCCCAATTCAGCATGAAGCAGTTAAGAGCGGTTGTCAGCCAACCTCCCCAACAGCACTTGGGTTTTCCTGTTGAGAGGTGGGACTGAGAGA
B4: 50 (nucleic acid, listed as Homo sapiens)
chain: CAGTCTTTCAGGACCAGAAGAGATGGATTTTAGGTTTTCCTTCCACTCAATGTATTCTATATGTACCCTAATCAACAAACATGCCTGGTTGTCACAGGTAGAAGGGGTCTCTACTCTGAATCATTCAGAGAAGAAATAATCATATTCTTTCGATGCTATCACTAACACAGGACCGTGATCCGAGACAACCAGGTTCAGTTCTTGATATGTAAAGGAATTTGGGAAAATATCATCTCTCACCACAAAATCTGTATTTTTATGTATATTTAAGCAAAATCCTGTTTTGGTCATCATTTTCTTTACCTTTCTTCTATATCCATCCTAATCTCCCTTTCAGC
B5: 46 (nucleic acid, listed as Homo sapiens)
chain: CACCCAAGTCACCTCTTGAATGCTTTGCTGCTTAGACATTTCTTCTGCCAGATACCCTAAATAATCTCTCTCAAGTTCAAAGTTCCACAAATCTCTAGGGCAGGGGCAAAATGCCACCAGTCTGTTTGCTAAAACATAACAAGAGTCATCTTTGCTCCAGTTCCCAACAAATTCCTTATCTCCATCTGAGACCACCTTATCCTGGATTTCATTGTCCATATCATTATCAGCATTTTGGTCAAAGCCACTCCACAAGTCCCTAGGAAGTTCCAAACTTTCCCACATTTTCCTGTCTTCTTCTGAGGCCTCCAACCTATTCCACCCTCTGTCTGTTACCCAGTTCCAAAGTTGCTTCTACATTTTCAGGTGTCTTTTCAGCAGTGCCACACTCTACTGGTACTAATTTAC
B6: 52 (nucleic acid, listed as Homo sapiens)
chain: TCATCTCACAGAGTTAAACCTTTCTTTTGATTGAGCAGTTTTGAAACTCTCTTTTTGTAGAATCTACAAGTGGACATTGGGAGCTCTTTGAGGCCTATGTTAGAAAAGGAAATATCTTCACATAAAACCTAGATAGAGGCAATCTGAGAAACATCTTTGTGATGTGTGCATTCATCTCACGGAGTTAAACCTTTCTTTTCGTTGAGCAGTTTTTAAACTGTCTTTTTGTAGAATGTGCAAGTGGACATTTGGAGCGCTTTTTGTCCTATGGTGGGAAAGGAAGTATCTTCACATAAAAACTAGACCGAAGAATTCTGAGAAACTTCTTTGTGACGTGTACGTTCATCTCACTGAGTTGAACCTTTCTTTTGATTGAGCAGTTTGGAAACACTCTTTTTGTAGAATCTGCAAGTAGACATTTGGAGCGCTTTTCAGCCTACGGTAGAAAAGGAAATATCTTCACATCACAAAGAGAGAGTTTCAAAACTGCTCTATCAAAAGAAAGGTTTAACCCTGTGCGATGAATGCACATATCACAAAGAAGTTTCTCAGATTGCTTCTGTCTAGATTTTATGTGAAGATATTCCTTTTTCCACCATAGGCCTCAAAGCGCTCCAAATGTCCACTTGCAGATTCTACAAAAAGAGTGCTTCCAAACTGCTCGATGAAAAAAATGGTTCAACTCTGTGAGATGAATGCACGCATCACAAAGAAGTTTCTCAGAATTTTTCTATCTAGTATTTATTTGAAGATATTTCATTTTCCACCAT
B7: 39 (nucleic acid, listed as Homo sapiens)
chain: GTATTTAGATTCCCAGACTTTGGAGCCAGATCGGCTGAGTTCAAACCCTGTCTGTGCAACTATCAGCTGTTCAGCTGTGTGACCTTGGGCAAGTTACTTAACCTCTCTGAACCCTGATTCCTCCTGCAAACGGTGGGAAAAATAATAGAACCAATCTCTCTGGGTTGCTGTAAGGATTAAATTAATTTACAGTGCATGTAACATGCTTACAGCAATGTCTGGCACACAGTAAGCACTAAGTATTTGTTGTTATTTGTCATC
B8: 58 (nucleic acid, listed as Homo sapiens)
chain: TAGATGGAGGGGGAAAAACAGGGTGGGGAGCGGGAGGGAGGGAAGGTTTTGCAGAAAGACGGCGGTTAAAAAGTTTATGGGTAGATGGAGGGGGAAAAGAGGGTGGCAAGTGGGAGGAGGAAAGAGGGTGATAAGGGGGGGAAGTGGGGGTGAGCAGTAGGGAGAGAAGGTTTTGTGAAAAAAATGGGGAGAAAGGTTTTGGTTAGACGGGAGAAAAGAGGGTAACAAGTTGGGGAAGGAAAAAGAGGGTAGCTAGGAAGAAGACAAGGTTTTGCGAAAAGATAGCGGCCAGAAAAGAAAGACGGTGGAGAAAGGAAAGACGGTGGGTAAAAAGTGGGTAGATGGAGTGGGGAAAGAGGGT
B9: 55 (nucleic acid, listed as Homo sapiens)
chain: GCGGTGGCTCACGCTTGTAATCCCAGCACTTTGGGAGGCCGAGGTGGGCGGATCACGAGGTCAGGAGATCAAGACCACGGTGAAACCCCATCTCTACTAAAAATATAAAAAATTAGCCGGGCGTGGTGGTGGGCGCCTGTAATCCCAGCTACTCAGAGAGGCTGAGGCAGGAGAAGGGCGTGAACCCGGGAGGCGGAGCTTGTAGTGAGCTGAGATCGCGCCACTGCACTCCAGCACCCCAGCCTGGGTGACAGAGCGAGACTCCGTCTCAAAAAAATAATAATAATAATTAAATAAATAA

In one series the test system is MIA (pancreatic cancer) cell genome. Description: ctDNA coculture with MIA cells, whole genome sequencing: genomic insertion sites, transposons at insertion points and SNVs (pancreatic cancer). It is filed as cell-based, human. The note with it: TABLE 4; gene at identified genomic insertion site. Here is the method:
The integration of ctDNAs into the host cell genome was evaluated. ctDNA was extracted from patient plasma, cultured for 24 hours with cells of a matching cancer cell type or non-matching cancer cell type, and whole genome sequencing was performed. The cell lines used were MM1s (multiple myeloma, MM) and MIA (pancreatic cancer, PC).
The sequence data was used to reconstruct genomic contigs for each experimental condition by de novo assembly. […] Coculture contigs carrying a ctDNA insertion were identified using NucDiff analysis.
Experiments were designed to identify the presence of transposons in ctDNA fragments. To map ctDNA genomic junctions more precisely, a PACBIO probe was ligated to multiple myeloma and pancreatic cancer ctDNA samples to label their 5′ and 3′ ends. Whole-genome sequencing of DNA from cells with ctDNA genomic integration was done using the Illumina platform. De novo assembly was performed on the sequencing output. ctDNA contigs containing PACBIO adaptor were then matched to those contigs containing inserted ctDNA sequences identified in the coculture experiments. Transposable element on ctDNA sequences at the insertion points (<100 nucleotides from transition point between cell and ctDNA) were detected and classified using RepeatMaster.
A search was conducted for transposons that preferentially target cells of matching tumor types. The lists of transposons identified at the ctDNA insertion point in matching and mismatched coculture conditions were compared (e.g., MM ctDNA with MM cells or PC cells). Transposons were selected that were uniquely or preferentially inserted in the matching conditions.
Whole-genome sequencing and Whole exon sequencing: ctDNA was extracted from 10 MM and 10 PC patients. DNA from CD138 (+) cells and from cell lines used in in vitro experiments (MM1s and MIA) was extracted using Blood & Cell Culture DNA Mini Kit (Quiagen, MD). DNA from […] paraffin embedded pancreatic tumors was obtained using QIAamp DNA FFPE Tissue Kit Print (Qiagen, MD).
After extraction, ctDNA was ligated to the PACBIO adaptor ([…]) using the ABM DNA Library Prep Kit for Illumina Sequencing (Applied Biological Materials Inc. Canada). PACBio-labeled ctDNA and regular ctDNA were subjected to standard methods for library preparation and sequencing using Illumina and Agilent protocols, respectively. Applied Biological Materials Inc. prepared the libraries and performed whole-exon and -genome sequencing.
Identification of transposable elements and its nucleotide variants: To determine the locations of transposable-like regions in contigs, sequences were analyzed and transposable elements (TEs) were identified and classified using RepeatMasker version 4.1.0 and the Dfam database (release 3.1) of repetitive DNA families was used as a reference for identifying repeats in ctDNA contig sequences that were part of qualifying structural events. For each repeat sequence identified by RepeatMasker, the overall frequency of the specific repeat (e.g., for AluSp or L1) and their parent class (e.g., SINE) was computed.
Once the TE elements were identified, hit repeats/TE sequences, unique contigs for all samples, and insertion sequence were aligned with MAFFT software version. Mutations in TE sequences were identified by comparison of nucleotides at each position in the multiple sequence alignment with the “Biostrings” R package (version 4.1). A position was considered to contain mutation if the substitution was present in contigs of all samples.
Consider B1, for which the Gene result is given as “GRB10”.

For the molecule B2, the Gene entry is “LINE1/Alu”.

Take B3: the Gene entry was “AIG1”.

Staying with this series, now noted: TABLE 4; identified genomic insertion site, chromosome.
For the molecule B4, the Location result is recorded as “Chr 7”.

Take B5: the Location result is reported as “Chr 5”.

As to B1, the Location result is recorded as “Chr 7”.

As to B2, the Location entry was “Chr 10”.

For the molecule B6, the Location result is “Chr 7”.

As for B7, the Location result is on record as “Chr 2”.

With B3, the Location result was “Chr 6”.

For B8, the Location entry is on record as “Chr 13”.

For B9, the Location result is given as “Chr 14”.

Still in this series, the particulars now being: TABLE 4; number of single nucleotide variants (SNVs or SNPs) identified; polynucleotides for pancreatic cancer cells.
For B4, the “No. SNP” value came out at 3.

For B5, the “No. SNP” value worked out at 2.

B1: the “No. SNP” value was found to be 1.

As to B2, the “No. SNP” value stood at 4.

Regarding B6, the “No. SNP” value was found to be 55.

On to B7, for which the “No. SNP” value was determined as 1.

B3: the “No. SNP” value is given as 5.

On to B8, for which the “No. SNP” value was 1.

For the molecule B9, the “No. SNP” value was 1.

The same series, now with this note: TABLE 4; position on the chromosome of the identified genomic insertion site.
B4 had a Chr location of 18828526.

Regarding B5, the Chr location was 107782747.

In turn, B1 gave a Chr location of 50660129.

B2 registered a Chr location of 14247220.

Molecule B6 returned a Chr location of 57988111.

For B7, the Chr location is 27942978.

Turning to B3, the Chr location was 143409567.

The molecule B8 showed a Chr location of 19693028.

B9 showed a Chr location of 103067410.

Values taken from US20250241939A1, “NUCLEIC ACID-BASED DELIVERY SYSTEMS AND USES THEREOF” (Kodikaz Therapeutic Solutions, Inc., priority 2022, published 2025).
